Test [1] addresses desmoglein 3 (Dsg3) on Dsg3 ELISA plates (Homo sapiens, UniProt P32926). Put plainly: ELISA.
Test [2] has as its target Dsg3-Fc recombinant fusion protein (Homo sapiens, UniProt P32926). Briefly: SPR. On the technique in general: SPR reads the build-up and loss of mass on a sensor chip optically.

Dsg3-Fc recombinant fusion protein, sequence (P32926 50-615): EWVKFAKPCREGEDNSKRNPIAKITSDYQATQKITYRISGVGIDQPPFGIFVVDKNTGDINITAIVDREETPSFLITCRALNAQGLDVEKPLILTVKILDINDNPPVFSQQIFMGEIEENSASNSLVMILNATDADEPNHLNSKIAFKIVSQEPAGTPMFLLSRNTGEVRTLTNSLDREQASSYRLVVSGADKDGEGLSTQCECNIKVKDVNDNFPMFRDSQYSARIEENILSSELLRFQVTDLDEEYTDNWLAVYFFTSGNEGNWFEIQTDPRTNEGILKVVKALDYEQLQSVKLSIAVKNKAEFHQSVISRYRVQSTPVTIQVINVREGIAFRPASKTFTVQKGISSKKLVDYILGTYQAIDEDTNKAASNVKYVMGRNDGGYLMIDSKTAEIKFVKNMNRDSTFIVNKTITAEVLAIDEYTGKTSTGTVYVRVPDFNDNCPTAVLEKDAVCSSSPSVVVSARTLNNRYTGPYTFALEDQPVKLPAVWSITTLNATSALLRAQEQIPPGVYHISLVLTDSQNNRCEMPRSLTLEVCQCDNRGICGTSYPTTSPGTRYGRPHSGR
desmoglein 3 (Dsg3) on Dsg3 ELISA plates, sequence (P32926 50-615): as above

B1: F779 scFv, somatically mutated (scFv, V domains shown)
VH: QVQLVQSGADVKKPGASVKVSCTASGNTFTTYSLHWVRQAPGQGLEWMGVIDPSGGSTSYAQKFQGRLTMTRDTSTSTFYMELSSLRSEDTAVYYCARSIESISGRTLGYWGQGTLVTVSS
VL: DIVMTQTPLSSPVTLGQPASISCRSSETLVHSDGNTYLSWLQQRPGQPPRLLIYKISNRFSGVPDRFSGSGAGTDFTLKISRVEAEDVGVYYCLQATEFPYTFGQGTKLEIK
The Kd is the constant that tells how readily two partners part at equilibrium. Usually koff stands for the rate constant with which the complex falls apart. What is called kon is the rate constant with which the complex forms. Take B1: the binding result in test [1] is “binds”. Further, in test [2], the Kd came out at 1.77 nM, the dissociation rate constant (koff) came out at 0.000548 s⁻¹ and the kon stood at 310000 M⁻¹ s⁻¹.

B2: PVE4-8 scFv mAb, somatically mutated (scFv, V domains shown)
VH: QVQLVQSWAEVKKPGASVKFSCKASGYTFTAYYMHWVRQAPGQGLEWMGIINPSGGIATYAEKFQGRVTMTRDTSTTTVYMELSSLRSQDAAVYYCARDRQGFDLDVWGQGTTVTVSS
VL: ELVLTQPPSASGSPGQSVTISCTGTSSDVGGYNYVSWYQQHPGKAPKLMIYEVNKRPSGVPDRFSGSRSGNTASLTVSGLQAEDEADYYCSSYAGSNNLVFGGGTKVTVL
For B2, in test [2], the Kd came out at 2.39 nM, the koff was found to be 0.00123 s⁻¹ and the kon turned out to be 515000 M⁻¹ s⁻¹.

B3: 4.2 scFv mAb, somatically mutated (scFv, V domains shown)
VH: EVQLVQSGAEVKKPGASLKVSCQASGYIFTSHYIHWVRQAPGQGLEWMGIINPSGGKTTFAQKFQGRVTMTRDTSTRTVYMEMSGLRSEDTAVYYCARDQSLGMDVWGQGTTVIVSS
VL: ELALTQPPSVSGSPGQSITISCTGTSSDVGGYNYVSWYQQHPGKAPKLMIYEVSKRPSGVSNRFSGSKSGNTASLTISGLQAEDEADYYCSSYAGSNNWVFGGGTKLTVL
With B3, in test [2], the Kd is 0.182 nM, the koff was 0.000712 s⁻¹ and the kon came to 3.91e+06 M⁻¹ s⁻¹.

B4: 3.2 scFv mAb, somatically mutated (scFv, V domains shown)
VH: QVQLVQSGAEVKKPGASVKVSCKASGYTFTSYYMHWVRQAPGHGLEWMGIINPSGGIANYAQKFQGRVTMTRDTSTSTVYMDLSSLTSEDTAVYYCARDLGGFDFDYWGQGTLVTVSS
VL: ELALTQPPSVSGSPGQSVTISCTGTSSDIGRYNFVSWYQQHPGKAPKLMIYEIYKRPSGVPDRFSGSRSGNTASLTVSGLQAEDEADYYCSSYVGNNDLVFGGGTQLTVL
With B4, in test [2], the Kd was determined as 1.42 nM, the koff turned out to be 0.00231 s⁻¹ and the kon is 1.62e+06 M⁻¹ s⁻¹.

The record behind these values is article PMC4120239 (Nature communications, 2014).
